Measured values from patent US20090297524A1 (DOMANTIS, published 2009).
Numbering of substitutions follows the chain as printed.

T1: Recombinant human CD40L (human, UniProt P29965 108-261, limits assumed)
T1 construct: also called CD40 ligand
T1 sequence (looked up): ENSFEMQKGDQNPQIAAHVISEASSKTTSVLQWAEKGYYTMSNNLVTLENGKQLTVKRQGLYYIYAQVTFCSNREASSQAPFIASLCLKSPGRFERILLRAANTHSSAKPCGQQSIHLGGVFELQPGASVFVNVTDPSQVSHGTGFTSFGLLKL

B1: DOM.93 (other)
VH: EVQLLESGGGLVQPGGSLRLSCAASGFTFDIYGMTWVRQAPGKGLEWVSSISPLGLVTYYADPVKGRFTISRDNSKNTLYLQMNSLRAEDTAVYYCAKLKEHGDVPFDYWGQGTLVTVSS
notes: VH dAb
B2: DOM.94 (other)
VH: EVQLLESGGGLVQPGGSLRLSCAASGFTFELYPMSWVRQAPGKGLEWVSTISPTGLLTYYADSVKGRFTISRDNSKNTLYLQMNSLRAEDTAVYYCAKFKRSGKTDDTNFDYWGQGTLVTVSS
notes: VH dAb
B3: DOM-15 (other)
VH: EVQLLESGGGLVQPGGSLRLSCAASGFTFEEYVMSWVRQAPGKGLEWVSTISPIGLTTYYADSVKGRFTISRDNSKNTLYLQMNSLRAEDTAVYYCAEFPLIILPDFDYWGQGTLVTVSS
notes: VH dAb
B4: DOM.95 (other)
VH: EVQLLESGGGLVQPGGSLRLSCAASGFTFREYDMLWVRQAPGKGLEWVSTIVGDGNGTYYADSVKGRFTISRDNSKNTLYLQMNSLRAEDTAVYYCAKQDRQFDYWGQGTLVTVSS
notes: VH dAb
B5: DOM.90 (other)
VL: DIQMTQSPSSLSASVGDRVTITCRASQSISDALFWYQQKPGKAPRLLIYYGSVLQSGVPSRFSGSGSGTDFTLTISSLQPEDFATYYCQQRFQEPVTFGQGTKVEIKR
notes: Vk dAb
B6: DOM.92 (other)
VH: EVQLLESGGGLVQPGGSLRLSCAASGFTFVDYPMGWVRQAPGKGLEWVSTISTGGFSTYYADSVKGRFTISRDNSKNTLYLQMNSLRAEDTAVYYCAKARYYYLSQIKNFDYWGQGTLVTVSS
notes: VH dAb
B7: DOM-36 (other)
VL: DIQMTQSPSSLSASVGDRVTITCRASQDIDHNLEWYQQKPGKAPKLLIYDSSMLQSGVPSRFSGSGSGTDFTLTISSLQPEDFATYYCQQYHSIPVTFGQGTKVEIKR
notes: Vk dAb
B8: DOM-38 (other)
VL: B7 VL with D30G, H31N, K45R, D50H, S51G, M53W, H92D, S93F, I94N, V96T
notes: Vk dAb
B9: DOM.163 (other)
VL: B7 VL with D30E, H31G, M53Q, S93H, I94L, V96T
notes: Vk dAb
B10: DOM.103 (other)
VL: DIQMTQSPSSLSASVGDRVTITCRASQAIGHRLRWYQQKPGKAPKLLIYHRSKLQSGVPSRFSGSGSGTDFTLTISSLQPEDFATYYCQQVRAVPYTFGQGTKVEIKR
notes: Vk dAb
B11: DOM-37 (other)
VL: B7 VL with D28Q, D30E, H31T, S51G, M53W, I94L, V96A
notes: Vk dAb
B12: DOM.109 (other)
VL: B10 VL with V91T, R92Y, A93Y, V94R, Y96L
notes: Vk dAb
B13: DOM.159 (other)
VL: B7 VL with T5I, D30N, H31E, N32D, D50N, S51A, E81K, S93T, I94N, V96T
notes: Vk dAb
B14: DOM-52 (other)
VL: DIQMTQSPSSLSASVGDRVTITCRASQDIGSALRWYQQKPGKAPKLLIYLGSDLQSGVPSRFSGSGSGTDFTLTISSLQPEDFATYYCQQTQYFPTTFGQGTKVEIKR
notes: Vk dAb
B15: DOM.110 (other)
VL: B14 VL with S9A, G30D, S31P, A32M, L50A, D53I, Q92S, Y93I, F94R, T96Y
notes: Vk dAb
B16: DOM-35 (other)
VL: B7 VL with D28F, D30G, H31D, N32S, E34S, D50F, M53I, H92M, S93D, V96I
notes: Vk dAb
B17: DOM.142 (other)
VL: DIQMTQSPSSLSASVGDRVTITCRASQFIGDSLSWYQQKPGKAPKLLIYFSSILQSGVPSRFSGSGSGTDFTLTISSLQPEDFATYYCQQYHTSPTTFGRGTKVKIKR
notes: Vk dAb
B18: DOM.162 (other)
VL: B7 VL with D30S, H31D, N32D, D50N, M53F, T69A, I94L
notes: Vk dAb
B19: DOM.154 (other)
VL: DIQMTQSPSSLSASVGDRVTITCRASQDIEEMLHWYQQKPGKAPKLLIYFGSLLQSGVPSRFSGSRSGTDFTLTISSLQPEDFATYYCQQHHTRPYTFGQGTKVEIKR
notes: Vk dAb
B20: DOM-116 (other)
VL: DIQMTQSPSSLSASVGDRVTITCRASQPIGPDLLWYQQKPGKAPKLLIYQTSILQSGVPSRFSGSGSGTDFTLTISSLQPEDFATYYCQQYWAFPVTFGQGTKVEIKR
notes: Vk dAb
B21: DOM-49 (other)
VL: B17 VL with I2V, F28W, S51G, I53Y, H92M, T93S, S94A, T96S, R100Q, K105E
notes: Vk dAb
B22: DOM.156 (other)
VL: B7 VL with D30M, H31D, D50A, S51A, M53W, S93K, I94L
notes: Vk dAb
B23: DOM.89 (other)
VL: B14 VL with S9A, G30D, S31P, A32M, L50A, D53I, Q92L, Y93V, F94T, T96Y
notes: Vk dAb
B24: DOM.164 (other)
VL: B7 VL with D28S, H31T, N32D, S51G, M53W, H92R, S93W
notes: Vk dAb
B25: DOM.144 (other)
VL: B7 VL with D28M, H31Q, N32D, D50N, S51A, M53W, S93G, I94Y, V96I
notes: Vk dAb
B26: DOM.150 (other)
VL: B14 VL with D28G, S31T, A32D, R34N, L50M, D53Y, T91I, Q92Y, Y93S, T96I
notes: Vk dAb
B27: DOM.105 (other)
VL: B10 VL with V91S, R92Y, V94R, Y96V
notes: Vk dAb
B28: DOM.157 (other)
VL: B7 VL with D28N, D30G, H31E, N32D, K42N, D50S, S51A, M53H, H92S, I94Y
notes: Vk dAb
B29: DOM.147 (other)
VL: B7 VL with D28E, D30E, H31T, M53H, S93Q, I94N, V96P
notes: Vk dAb
B30: DOM-47 (other)
VL: B17 VL with F28W, S51G, I53Y, H92L, T93H, S94T, T96S, R100Q, K105E
notes: Vk dAb
B31: DOM.175 (other)
VL: DIQMTQSPSSLSASVGDRVTITCRASQPISGGLRWYQQKPGKAPKLLIYSTSMLQSGVPSRFSGSGSGTDFTLTISSLQPEDFATYYCQQLYSAPYTFGQGTKVEIKR
notes: Vk dAb
B32: DOM.101 (other)
VL: B10 VL with R92A, A93L, V94F
notes: Vk dAb
B33: DOM.160 (other)
VL: B7 VL with D30E, H31A, N32D, D50H, M53E, S93M, I94S
notes: Vk dAb
B34: DOM.104 (other)
VL: B10 VL with A93F, V94S
notes: Vk dAb
B35: DOM.143 (other)
VL: B7 VL with D28T, D30E, H31T, M53Q, F83L, S93G, I94Y, V96T
notes: Vk dAb
B36: DOM.155 (other)
VL: B7 VL with D30G, H31M, N32D, K39I, A43V, S51A, M53Y, S93K, I94L, V96A
notes: Vk dAb
B37: DOM.161 (other)
VL: B7 VL with H31S, N32D, K45M, D50S, M53D, I94L
notes: Vk dAb
B38: DOM.91 (other)
VL: DIQMTQSPSSLSASVGDRVTITCRASQQISDELNWYQQKPGKAPKLLIYAVSILQSGVPSRFSGSGSGTDFTLTISSLQPEDFATYYCQQWLSFPSTFGQGTKVEIKR
notes: Vk dAb
B39: DOM.106 (other)
VL: B10 VL with A28S, G30N, R34Y, K53R, V91Y, R92K, A93V, V94R, Y96N
notes: Vk dAb
B40: DOM.108 (other)
VL: B10 VL with V91R, R92A, A93V, V94R, Y96F
notes: Vk dAb
B41: DOM.158 (other)
VL: DIQMTQSPSSLSASVGDRVTITCRASQPIDEDLEWYQQKPGNAPKLLIYSASYLQSGVPSRFSGSGSGTDFTLTISRLQPEDFATYYCQQYHLLPATFGQGTKVEIKR
notes: Vk dAb
B42: DOM.107 (other)
VL: B10 VL with V91T, R92Y, A93S, V94S, Y96H
notes: Vk dAb
B43: DOM-86 (other)
VL: B7 VL with D30G, H31D, N32A, E34F, D50Y, S65G, Y91R, I94T, V96A
notes: Vk dAb

The binders below were run against T1, Recombinant human CD40L (assay: CD40L/CD40-Fc receptor binding assay;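 also: plate assay with coated human CD40-Fc, bound ligand detected via HRP anti-biotin antibody and TMB, OD at 450 nm, lower signal indicates stronger inhibition by dAb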).
Protocol: A 96 well Nunc Maxisorp assay plate was coated overnight at 4° C. with 100 μl per well of recombinant human CD40/Fc (R&D Systems) at 0.5 μg/ml in carbonate buffer. The plate was washed 3 times with 300 μl of 0.05% Tween/PBS and 3 times with 300 μl of PBS using a Tecan plate washer. The wells were blocked using 200 μl of PBS containing 2% (w/v) BSA and incubated for a minimum of 1 h at room temperature. The wells were washed as above, then 50 μl of purified dAb protein (or unpurified supernatant containing dAb from a micro-culture expression) was added to each well.
The plate was washed as described above, then 100 μl HRP conjugated anti-biotin antibody (1:5000 dilution in diluent) added to each well and the plate incubated for 1 hr at room temperature. The plate was washed again as described above using a Tecan plate washer and the assay developed using 100 μl of SureBlue 1-Component TMB MicroWell Peroxidase solution (the plate was left at room temperature for up to 20 min). The reaction was stopped by the addition of 100 μl M hydrochloric acid. The OD₄₅₀ₙₘ of the plate was assayed within 30 minutes of acid addition. The OD₄₅₀ₙₘ is proportional to the amount of bound streptavidin-HRP conjugate, therefore the greater the degree of dAb inhibition the lower the OD₄₅₀ₙₘ of the resulting signal.

Binding result, binds:
B1
B2
B3
B4
B5
B6
B7
B8
B9
B10
B11
B12
B13
B14
B15
B16
B17
B18
B19
B20
B21
B22
B23
B24
B25
B26
B27
B28
B29
B30
B31
B32
B33
B34
B35
B36
B37
B38
B39
B40
B41
B42
B43
